Experimental findings from patent US11319374B2, “Inhibitors of prototypic galectin dimerization and uses thereof” (INSTITUT NATIONAL DE LA RECHERCHE SCIENTIFIQUE, priority 2015, dated 2022) are described below.

Where no end group is shown, it is not given here.

One series addresses T1, hGal-7 homodimer (Homo sapiens, UniProt P47929).
T1 construct: made in house; host or cells: E. coli BL21 (DE3)
Put plainly: hGal-7 homodimer disruption, low-SDS native gel electrophoresis / Western blotting. It is filed as biochemical. As to conditions: recombinant hGal-7 0.5 μM, increasing peptide concentrations. The method, then:
Production of recombinant hGal-7 and hGal-1. Human Gal-7 cDNA was cloned into pET-22b(+) using Ndel and HindIII restriction enzymes. Human pET-Gal-1 vector was generously donated by Dr. S. Sato (McGill University, QC, Canada). The proteins were produced in E. coli BL21 (DE3) cells at 37° C. Isopropyl p-D-1-thiogalactopyranoside (IPTG) (1 mM) was added to the bacterial culture at OD600nm=0.6-0.7 and then incubated for 4 h at 37° C. to allow protein production. Bacterial pellets were resuspended in lysis buffer (0.7 mg/mL lysozyme, 10 mM Tris pH 8, 100 mM NaCl, 1 mM EDTA, 1 mM DTT and a protease inhibitor cocktail) and then incubated for 1 h at 37° C. prior to centrifugation for 30 min at 15,000×g (4° C.). The supernatant was then filtered with 500 mL bottle top filter ([…]) (Corning®, New York, N.Y., USA) and then ran through a lactose-agarose column (Sigma®, St. Louis, Mo., USA). The protein was eluted in 1 mL fractions with 150 mM lactose solution. Purified fractions were analyzed by SDS-PAGE. The hGal-7 was then concentrated and purified using Centrifugal filter units (Amicon® Ultra-15, 10K) (EMD®, Etobicoke, ON) in 20 mM potassium phosphate at pH 7.1. All subsequent experiments with the recombinant proteins were performed in the same buffer solution unless mentioned otherwise. Brilliant Coomassie blue was purchased from BioRad® (Bio-Rad Laboratories®, Mississauga, ON, Canada). The recombinant human Bcl-2 protein fragment was purchased from Abcam® (Abcam®, Cambridge, UK, Cat #ab73696).
Western blotting. For the apoptosis tests, whole-cell extracts were homogenized and resuspended in RIPA buffer (Thermo Fisher Scientific®, Rockford, Ill., USA) containing protease inhibitors (Roche®, Laval, QC, Canada). Equal amounts of whole-cell extracts (25 μg) were separated on SDS-PAGE and transferred onto nitrocellulose membranes (Bio-Rad Laboratories®). The membranes were first blocked with 5% milk [w/v] in TBS/0.5% Tween® 20 [v/v] for 1 h at room temperature and subsequently blotted overnight in a solution of TBS containing 3% BSA [w/v] and 0.5% Tween 20 [v/v]. The following antibodies were used: a rabbit anti-Poly-(ADP-ribose) polymerase (PARP)-1 (p25) polyclonal antibody (1:5000; Epitomics®, Burlingame, Calif., USA) and a mouse anti-β-actin (1:10000; Sigma-Aldrich®, St-Louis, Mo., USA). Secondary antibodies consisted of horseradish peroxidase-conjugated donkey anti-rabbit (GE Healthcare®, Buckinghamshire, England) and sheep anti-mouse (GE Healthcare®) IgG. Detection was performed using the enhanced chemiluminescence method (GE Healthcare®). For the recombinant protein tests, each peptide was dissolved and maintained in 20 mM potassium phosphate at pH 7.1. The recombinant proteins and peptide dilutions were pre-incubated for 1 h at 4° C. prior to gel migration. The native polyacrylamide gel was made without SDS to allow molecular weight differentiation between the dimer and monomer. The following antibodies were used: a goat anti-Gal-7 antibody (1:10000; R&D Systems®, Minneapolis, Minn., USA), a mouse anti-Gal-1 antibody (1:10000; Proteintech®, Chicago, Ill., USA) and a rabbit anti-Bcl-2 antibody (1:1000; Abeam®, Cambridge, UK). Secondary antibodies consisted of donkey anti-goat (R&D Systems®) or sheep anti-mouse and sheep anti-rabbit (GE Healthcare®) IgG. Detection was performed as described above.
To determine whether these peptides could inhibit the formation of the hGal-7 homodimer, recombinant hGal-7 (0.5 μM) was incubated with increasing concentrations of hGal-7(13-25), hGal-7(85-102), hGal-7(95-108) or hGal 7(129-135) and the formation of homodimers was measured. To measure the ability of the peptides to disrupt the formation of hGal-7 dimers, a mild denaturing (low SDS) native gel electrophoresis, a commonly used approach to visualize monomer-dimer equilibrium, was used (FIG. 1A and FIG. 6).
(In western blotting, separated proteins are transferred to a membrane and probed.)

In series [1] the test system is Jurkat T cells. Put plainly: FITC-labeled hGal-7 binding on Jurkat T cells, flow cytometry. It is filed as cell-based. Conditions: FITC-labeled hGal-7 0.1 μM pre-incubated with peptide, FIG. 4. The method, then:
FITC conjugation and hGal-7 binding assay. To assess hGal-7 binding onto Jurkat T cells, 5 μL of a 1.25 mg/mL fluorescein isothiocyanate (FITC)/DMSO solution was added to 300 μL of 1.7 μg/μL recombinant hGal-7 in a 0.1 M NaHCO3 pH 9.2 solution and incubated for 1 h at room temperature on a roller. FITC-labeled hGal-7 was then purified using a PD-10 Sepharose® column (GE healthcare) and eluted with PBS containing 0.01% [v/v] sodium azide. FITC-labeled hGal-7 (0.1 μM) was then pre-incubated with hGal-7(129-135) (or related peptides) in 20 mM potassium phosphate buffer pH 7.1 for 1 h at 4° C. Jurkat cells (5×10^5 cells per sample) were harvested in PBS-0.01% [v/v] sodium azide and incubated for 30 min on ice with the FITC-labeled hGal-7 with and without peptides. Cells were then washed with PBS-0.01% [v/v] sodium azide and resuspended in 400 μL of the same buffer and analyzed on a FACSCalibur® (BD Biosciences®).
(§1) It was thus tested whether hGal-7(129-135) could modulate the binding of hGal-7 on Jurkat T cells, a cell model that is commonly used to test the pro-apoptotic activity of galectins. For this purpose, recombinant hGal-7 was labeled with fluorescein isothiocyante (FITC) and its binding on the surface of Jurkat T cells was measured by flow cytometry in absence or presence of increasing concentrations of hGal-7(129-135). […]

Series [2] deals with Jurkat T cells. Put plainly: hGal-7-induced apoptosis of Jurkat T cells, PARP-1 cleavage by Western blotting. It is filed as cell-based. Conditions: 4 h at 37° C., serum-free RPMI, FIG. 5A. As to the method: Western blotting. For the apoptosis tests, whole-cell extracts were homogenized and resuspended in RIPA buffer (Thermo Fisher Scientific®, Rockford, Ill., USA) containing protease inhibitors (Roche®, Laval, QC, Canada). Equal amounts of whole-cell extracts (25 μg) were separated on SDS-PAGE and transferred onto nitrocellulose membranes (Bio-Rad Laboratories®). The membranes were first blocked with 5% milk [w/v] in TBS/0.5% Tween® 20 [v/v] for 1 h at room temperature and subsequently blotted overnight in a solution of TBS containing 3% BSA [w/v] and 0.5% Tween 20 [v/v]. The following antibodies were used: a rabbit anti-Poly-(ADP-ribose) polymerase (PARP)-1 (p25) polyclonal antibody (1:5000; Epitomics®, Burlingame, Calif., USA) and a mouse anti-β-actin (1:10000; Sigma-Aldrich®, St-Louis, Mo., USA). Secondary antibodies consisted of horseradish peroxidase-conjugated donkey anti-rabbit (GE Healthcare®, Buckinghamshire, England) and sheep anti-mouse (GE Healthcare®) IgG. […]
as §1

In series [3] the test system is Jurkat T cells. The series is described as follows: Apoptosis/toxicity of peptide alone in Jurkat T cells, Annexin V/PI. It is filed as cell-based. The method, then:
FIG. 8A: Flow cytometry histogram showing propidium iodide (PI) (FL3) labeling of Jurkat T cells without or with 200 μM of hGal-7(129-135). FIG. 8B: Histogram showing the average percentage of Annexin-V (AV) positive Jurkat T cells in the presence of increasing concentrations of […]. FIG. 8C: Flow cytometry histogram showing PI (FL3) labeling of Jurkat T cells without or with 200 μM of PACAP28-38 FIG. 8D: Histogram showing the average percentage of AV-positive Jurkat T cells in the presence of increasing concentrations of PACAP28-38. The percentage of cell death was obtained as described above. Error bars represent standard deviation. Significance was calculated with respect to AF samples. Results are representative of three independent experiments.
Apoptosis assays with Annexin V/PI staining. Apoptosis was measured by flow cytometry using FITC-labeled Annexin V (Biolegend®, San Diego, Calif., USA) and propidium iodide. Briefly, the corresponding dilutions of recombinant hGal-7 and hGal-7(129-135) peptides were pre-incubated for 1 h at 4° C. in serum-free RPMI 1640 medium. 2.5×10^5 Jurkat cells were then harvested in the same medium and incubated with their corresponding dilutions at 37° C. for 4 h. Cells were washed once in PBS and once in binding buffer (0.01 M HEPES, 0.14 M NaCl, 2.5 mM CaCl2, pH 7.4). Cells were then incubated for 15 min with Annexin V in the dark at room temperature. A total of 400 μL of binding buffer containing 0.25 μg/mL propidium iodide was added to the cells before analysis by flow cytometry.

T1 sequence (P47929 2-136 limits assumed): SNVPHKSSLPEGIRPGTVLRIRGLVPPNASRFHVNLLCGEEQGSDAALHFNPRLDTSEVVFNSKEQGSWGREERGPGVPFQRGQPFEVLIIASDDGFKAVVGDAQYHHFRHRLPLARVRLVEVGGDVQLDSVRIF

Regarding “PACAP(28-38): control peptide selected based on similarity in amino acid length and minimal toxicity on the cell line (GKRYKQRVKNK) [reference compound]”, the “disruption of hGal-7 homodimers (in words)” value (shortened to “disruption”) with hGal-7 homodimer is on record as “No such effect was observed”. Further, in the series on Jurkat T cells [1], the “fluorescent intensity of Jurkat T cells due to FITC-labeled hGal-7 binding” value was “No such effect was observed”. The “inhibition of hGal-7-induced apoptosis, PARP-1 cleavage” value in the series with Jurkat T cells [2] is reported as “No such effect was observed”. For the same substance, in the series on Jurkat T cells [3] (PI labeling at 200 μM, Annexin V at increasing concentrations, FIGS. 8A to 8D), the “toxicity in Jurkat T cells” value is given as “do not induce toxicity in Jurkat T cells”. Further, the “induction of apoptosis by peptide alone” value in the series with Jurkat T cells [3] (peptide alone, FIG. 8) is recorded as “did not induce apoptosis in Jurkat T cells”.
As to “H-Asp-Gly-Phe-Lys-Ala-Val-Val-Gly-Asp-Ala-Gln-Tyr-His-His-NH2 (H-DGFKAVVGDAQYHH-NH2; listed as Homo sapiens) [hGal-7(95-108), peptide corresponding to residues 95-108 of hGal-7]”, in the series with hGal-7 homodimer, the “disruption” value is listed as “less potent than hGal-7(129-135)”.
Still for that read-out and setting: to “L-A-S-V-R-I-F-NH2 (LASVRIF-NH2; listed as Homo sapiens) [[Ala^130]hGal-7(129-135), alanine substitute peptide of hGal-7(129-135)]” belongs “abrogates the ability of the peptide to disrupt hGal-7 homodimers”; to “H-Ile-Arg-Pro-Gly-Thr-Val-Leu-Arg-Ile-Arg-Gly-Leu-Val-NH2 (H-IRPGTVLRIRGLV-NH2; listed as Homo sapiens) [hGal-7(13-25), peptide corresponding to residues 13-25 of hGal-7]”, “less potent than hGal-7(129-135)”.
Consider “H-Phe-Glu-Val-Leu-lle-Ile-Ala-Ser-Asp-Asp-Gly-Phe-Lys-Ala-Val-Val-Gly-NH2 (H-FEVLIIASDDGFKAVVG-NH2; listed as Homo sapiens) [hGal-7(85-102), peptide corresponding to residues 85-102 of hGal-7]”, for which the “disruption” value with hGal-7 homodimer is reported as “less potent than hGal-7(129-135)”.
